Measured values published in the supplement of paper PMC11316812.
± gives the standard deviation of the averaged measurements.

Tests used:
hTERT-HMEC = assay: percentage of EdU-negative (G0-arrested) nuclei per well, 72 h; higher = more G0 arrest; conditions: reference: sequence is the full UniProt precursor, the tested protein was the secreted form or ectodomain
MCF7 = assay: as above; conditions: reference: sequence is the full UniProt precursor, the tested protein was the secreted form or ectodomain
[1] = protein concentration 0.0322857 µM
[2] = protein concentration 0.0337143 µM
[3] = protein concentration 0.322857 µM
[4] = protein concentration 0.337143 µM
[5] = protein concentration 0.0225 µM
[6] = protein concentration 0.03125 µM
[7] = protein concentration 0.3125 µM
[8] = protein concentration 0.0205 µM
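Note: secreted proteins added to cultured cells, EdU pulse at the end, nuclei found by Hoechst imaging, EdU status from nuclear versus surrounding ring intensity ratio, PBS as neutral control.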

## MLPPMALPSVSWMLLSCLMLLSQVQGEEPQRELPSARIRCPKGSKAYGSHCYALFLSPKSWTDADLACQKRPSGNLVSVLSGAEGSFVSSLVKSIGNSYSYVWIGLHDPTQGTEPNGEGWEWSSSDVMNYFAWERNPSTISSPGHCASLSRSTAFLRWKDYNCNVRLPYVCKFTD
hTERT-HMEC; [1]
  percentage of EdU-negative: 5.46 ± 0.53%
hTERT-HMEC; [2]
  percentage of EdU-negative: 5.04 ± 0.18%
hTERT-HMEC; [3]
  percentage of EdU-negative: 7.94 ± 0.33%
hTERT-HMEC; [4]
  percentage of EdU-negative: 6.63 ± 1.3%
MCF7; [1]
  percentage of EdU-negative: 24.2 ± 2.7%
MCF7; [2]
  percentage of EdU-negative: 24.3 ± 1.6%
MCF7; [3]
  percentage of EdU-negative: 26.7 ± 1.1%
MCF7; [4]
  percentage of EdU-negative: 27.4 ± 2.9%

## MLPPPRPAAALALPVLLLLLVVLTPPPTGARPSPGPDYLRRGWMRLLAEGEGCAPCRPEECAAPRGCLAGRVRDACGCCWECANLEGQLCDLDPSAHFYGHCGEQLECRLDTGGDLSRGEVPEPLCACRSQSPLCGSDGHTYSQICRLQEAARARPDANLTVAHPGPCESGPQIVSHPYDTWNVTGQDVIFGCEVFAYPMASIEWRKDGLDIQLPGDDPHISVQFRGGPQRFEVTGWLQIQAVRPSDEGTYRCLGRNALGQVEAPASLTVLTPDQLNSTGIPQLRSLNLVPEEEAESEENDDYY [Q96I82]
hTERT-HMEC; [5]
  percentage of EdU-negative: 5.43 ± 0.24%
hTERT-HMEC; protein concentration 0.225 µM
  percentage of EdU-negative: 5.18 ± 0.4%
MCF7; [5]
  percentage of EdU-negative: 25.7 ± 0.96%
MCF7; protein concentration 0.225 µM
  percentage of EdU-negative: 28.1 ± 2.9%

## MLPPWTLGLLLLATVRGKEVCYGQLGCFSDEKPWAGTLQRPVKLLPWSPEDIDTRFLLYTNENPNNFQLITGTEPDTIEASNFQLDRKTRFIIHGFLDKAEDSWPSDMCKKMFEVEKVNCICVDWRHGSRAMYTQAVQNIRVVGAETAFLIQALSTQLGYSLEDVHVIGHSLGAHTAAEAGRRLGGRVGRITGLDPAGPCFQDEPEEVRLDPSDAVFVDVIHTDSSPIVPSLGFGMSQKVGHLDFFPNGGKEMPGCKKNVLSTITDIDGIWEGIGGFVSCNHLRSFEYYSSSVLNPDGFLGYPCASYDEFQESKCFPCPAEGCPKMGHYADQFKGKTSAVEQTFFLNTGESGNFTSWRYKISVTLSGKEKVNGYIRIALYGSNENSKQYEIFKGSLKPDASHTCAIDVDFNVGKIQKVKFLWNKRGINLSEPKLGASQITVQSGEDGTEYNFCSSDTVEENVLQSLYPC
hTERT-HMEC; [5]
  percentage of EdU-negative: 4.69 ± 0.62%
hTERT-HMEC; protein concentration 0.225 µM
  percentage of EdU-negative: 5.7 ± 0.076%
MCF7; [5]
  percentage of EdU-negative: 25.9 ± 0.35%
MCF7; protein concentration 0.225 µM
  percentage of EdU-negative: 26.41 ± 0.1%

## MLPRVGCPALPLPPPPLLPLLLLLLGASGGGGGARAEVLFRCPPCTPERLAACGPPPVAPPAAVAAVAGGARMPCAELVREPGCGCCSVCARLEGEACGVYTPRCGQGLRCYPHPGSELPLQALVMGEGTCEKRRDAEYGASPEQVADNGDDHSEGGLVENHVDSTMNMLGGGGSAGRKPLKSGMKELAVFREKVTEQHRQMGKGGKHHLGLEEPKKLRPPPARTPCQQELDQVLERISTMRLPDERGPLEHLYSLHIPNCDKHGLYNLKQCKMSLNGQRGECWCVNPNTGKLIQGAPTIRGDPECHLFYNEQQEARGVHTQRMQ
hTERT-HMEC; [6]
  percentage of EdU-negative: 4.88 ± 1%
hTERT-HMEC; [7]
  percentage of EdU-negative: 6.96 ± 0.2%
MCF7; [6]
  percentage of EdU-negative: 27.7 ± 2.4%
MCF7; [7]
  percentage of EdU-negative: 31.1 ± 3.1%

## MLPWLLVFSALGIQAWGDSSWNKTQAKQVSEGLQYLFENISQLTEKGLPTDVSTTVSRKAWGAEAVGCSIQLTTPVNVLVIHHVPGLECHDQTVCSQRLRELQAHHVHNNSGCDVAYNFLVGDDGRVYEGVGWNIQGVHTQGYNNISLGFAFFGTKKGHSPSPAALSAMENLITYAVQKGHLSSSYVQPLLGKGENCLAPRQKTSLKKACPGVVPRSVWGARETHCPRMTLPAKYGIIIHTAGRTCNISDECRLLVRDIQSFYIDRLKSCDIGYNFLVGQDGAIYEGVGWNVQGSSTPGYDDIALGITFMGTFTGIPPNAAALEAAQDLIQCAMVKGYLTPNYLLVGHSDVARTLSPGQALYNIISTWPHFKH [Q96LB8]
hTERT-HMEC; [5]
  percentage of EdU-negative: 5.75 ± 0.76%
hTERT-HMEC; protein concentration 0.225 µM
  percentage of EdU-negative: 6.41 ± 1.2%
MCF7; [5]
  percentage of EdU-negative: 24.7 ± 0.28%
MCF7; protein concentration 0.225 µM
  percentage of EdU-negative: 25 ± 1.5%

## MLPWTALGLALSLRLALARSGAERGPPASAPRGDLMFLLDSSASVSHYEFSRVREFVGQLVAPLPLGTGALRASLVHVGSRPYTEFPFGQHSSGEAAQDAVRASAQRMGDTHTGLALVYAKEQLFAEASGARPGVPKVLVWVTDGGSSDPVGPPMQELKDLGVTVFIVSTGRGNFLELSAAASAPAEKHLHFVDVDDLHIIVQELRGSILDAMRPQQLHATEITSSGFRLAWPPLLTADSGYYVLELVPSAQPGAARRQQLPGNATDWIWAGLDPDTDYDVALVPESNVRLLRPQILRVRTRPGEAGPGASGPESGAGPAPTQLAALPAPEEAGPERIVISHARPRSLRVSWAPALGSAAALGYHVQFGPLRGGEAQRVEVPAGRNCTTLQGLAPGTAYLVTVTAAFRSGRESALSAKACTPDGPRPRPRPVPRAPTPGTASREP [Q6PCB0]
hTERT-HMEC; [8]
  percentage of EdU-negative: 5.62 ± 0.91%
hTERT-HMEC; protein concentration 0.205 µM
  percentage of EdU-negative: 5.75 ± 1.2%
MCF7; [8]
  percentage of EdU-negative: 26.5 ± 2.2%
MCF7; protein concentration 0.205 µM
  percentage of EdU-negative: 27.6 ± 0.87%
